Values of other authors as cited in patent publication US5576301A, “Low molecular growth potentiating peptides” (The Penn State Research Foundation, priority 1994, dated 1996).

B1: USDA bovine GH preparation: bovine growth hormone standard used in the tibial line bioassay (protein, UniProt P01246 27-217, looked up)
Somatotropin: AFPAMSLSGLFANAVLRAQHLHQLAADTFKEFERTYIPEGQRYSIQNTQVAFCFSETIPAPTGKNEAQQKSDLELLRISLLLIQSWLGPLQFLSRVFTNSLVFGTSDRVYEKLKDLEEGILALMRELEDGTPRAGQILKQTYDKFDTNMRSDDALLKNYGLLSCFRKDLHKTETYLRVMKCRRFGEASCAF

Experiments:
patients = patients treated with recombinant hGH
[1] = system: tibial growth plate of hypophysectomized rats; details: hormone standard
[2] = comparison values

Row | Molecule | potency of GH standard preparation [1] [IU/mg protein] | also measured
1 | recombinant form of hGH: recombinant human growth hormone used in the United States to treat patients |  | patients treated that develop circulating antibodies (patients): 20~30%
2 | Kabi hGH standard: human growth hormone standard obtained from Kabi Vitrum, Sweden | 3.0 | 
3 | human monomeric growth hormone: monomeric 22K human growth hormone |  | pI [2]: 5.1-5.6
4 | B1 | 1.4 | 
